Biological target: the molecule itself
Assay: solution-state NMR structure; 5 mM protein, 50 mM sodium phosphate buffer pH 7.5, 100 mM NaCl, 298 K; best 20 structures shown as a symmetrical dimer

B1: SP-22 small protein from Haloferax volcanii (natural protein)
chain: MNKAHFEVFVDAADKYRWRLVHDNGNILADSGEGYASKQKAKQGIESVKRNAPDADVIEA
notes: source: heterologously expressed in E. coli, purified (purity above 95 %)
stoichiometry N: 2

Reference: publication PMC7217052, “Rapid Biophysical Characterization and NMR Spectroscopy Structural Analysis of Small Proteins from Bacteria and Archaea” (Chembiochem, 2020)
